Experiment [1] has as its target Leishmania tarentolae PP1-8e, endogenously HA-tagged. As to the kind of experiment: co-IP (anti-protein A affinity resin, Western blot band quantification). The settings on record: parent: 1; read off a plot. (In general: Immunoblotting shows a protein as a band on a membrane.)
Experiment [2] addresses Leishmania tarentolae PNUTS, endogenously HA-tagged. The experiment is described as above. Particulars: parent: 1; read off a plot.
The target is the same in experiment [3]. Description: co-IP (PP1-8e-Pd pull-down, Western blot band quantification). Particulars: parent: 1; read off a plot.
Experiment [4] has as its target LtPNUTS R94A, Pd-tagged (Leishmania tarentolae). Description: co-IP; L. tarentolae cell extract; Pd-tagged PNUTS (overexpressed from pSNSAP1) held on IgG Sepharose beads, 4 h at 4 °C, washed three times in PA-150 buffer; endogenously HA-tagged PP1-8e, JBP3 or Wdr82 detected by anti-HA Western blot; %IP relative to WT PNUTS.
Experiment [5] deals with LtPNUTS D101A, Pd-tagged (Leishmania tarentolae). Described as above.
The target in experiment [6] is LtPNUTS L111A, Pd-tagged (Leishmania tarentolae). The description is as above.
Experiment [7] concerns the target LtPNUTS V97A, Pd-tagged (Leishmania tarentolae). The description is as above.
For experiment [8], the target named is LtPP1-8e 263–265A, Pd-tagged (Leishmania tarentolae). Description: co-IP; L. tarentolae cell extract; Pd-tagged PP1 (overexpressed from pSNSAP1) held on IgG Sepharose beads, 4 h at 4 °C, washed three times in PA-150 buffer; endogenously HA-tagged PNUTS detected by anti-HA Western blot; %IP relative to WT PP1-8e.
The target of experiment [9] is LtPP1-8e 359 to 362A, Pd-tagged (Leishmania tarentolae). The experiment is described as above.
Experiment [10] addresses LtPP1-8e I217A, Pd-tagged (Leishmania tarentolae). The description is as above.
Experiment [11] has as its target LtPP1-8e I360A, Pd-tagged (Leishmania tarentolae). The description is as above.
In experiment [12] the target is LtPP1-8e 354–358A, Pd-tagged (Leishmania tarentolae). The experiment is described as above.
In experiment [13] the target is LtPP1-8e CΔ23 (23 amino acid C-terminal extension deleted), Pd-tagged (Leishmania tarentolae). The description is as above.
The target in experiment [14] is LtPP1-8e D292A, Pd-tagged (Leishmania tarentolae). The description is as above.
For experiment [15], the target named is LtPP1-8e F305A, Pd-tagged (Leishmania tarentolae). Described as above.
In experiment [16] the target is LtPP1-8e 109–134Δ (26 amino acid insertion deleted), Pd-tagged (Leishmania tarentolae). Described as above.
Experiment [17] has as its target LtPP1-8e CΔ11 (final 11 amino acids deleted), Pd-tagged (Leishmania tarentolae). The description is as above.
The target in experiment [18] is LtPP1-8e with ^310DHK^312 mutated to alanine, Pd-tagged (Leishmania tarentolae). The experiment is described as above.
The target in experiment [19] is LtPP1-8e 109–114A (GGVFG to alanine), Pd-tagged (Leishmania tarentolae). The description is as above.
The target of experiment [20] is LtPP1-8e D290A, Pd-tagged (Leishmania tarentolae). The description is as above.
Experiment [21] concerns the target LtPP1-8e with ^260LP^261 mutated to alanine, Pd-tagged (Leishmania tarentolae). The experiment is described as above.

For “Leishmania tarentolae PNUTS, Pd-tagged (WT, full-length) W99A”, the ratio to parent in [1] is 0.08.
On to “Leishmania tarentolae PP1-8e, Pd-tagged (WT) R314A”, for which, in experiment [2], the ratio to parent was found to be 0.01.
Regarding “Leishmania tarentolae PNUTS, Pd-tagged (WT, full-length) F118A”, in experiment [1], the ratio to parent was found to be 0.22.
On the same count and under the same terms, the same measure for “Leishmania tarentolae PNUTS, Pd-tagged (WT, full-length) R125A”: 0.92.
With “Leishmania tarentolae PP1-8e, Pd-tagged (WT) I346A”, in experiment [2], the ratio to parent turned out to be 0.025.
The same measure, in the same setting: the same measure for “Leishmania tarentolae PP1-8e, Pd-tagged (WT) T348A”: 0.82; for “Leishmania tarentolae PP1-8e, Pd-tagged (WT) Y96A”: 0.68.
For the substance “Leishmania tarentolae PP1-8e, Pd-tagged (WT) S126A; D129A; D130A; Y133A; S134A”, in [3], the ratio to parent worked out at 0.84.
As for “Leishmania tarentolae PP1-8e, Pd-tagged (WT) F307A”, in [2], the ratio to parent is 0.
Turning to “Leishmania tarentolae PP1-8e, endogenously HA-tagged (enzyme)”, the results for the percent reduction of co-IP against WT PNUTS in experiment [4], in [5] and in [6] were 50%, 80% and 80%, respectively. For the same substance, the fold decrease of co-IP against WT PNUTS in [7] is 5 fold.
Take “Leishmania tarentolae PNUTS, endogenously HA-tagged (natural protein)”: the percent reduction of co-IP against WT PP1-8e in experiment [8] was determined as 90%; in [9], 80%; in experiment [10], 50%; in experiment [11], 80%; in experiment [12], 50%; in [14], 60%. Besides, the percent reduction of co-IP against WT PP1-8e in experiment [15] is 80%; in experiment [16] it was 80%; in experiment [17] it was 30%; in experiment [19] it was 80%; in experiment [20], 50%. This substance also came in with a percent loss of co-IP against WT PP1-8e in [13] of 80%. Moreover, the percent decrease of co-IP against WT PP1-8e in [18] is 20%. In experiment [21], the percent of co-IP lost against WT PP1-8e was found to be 80%.
Consider “Leishmania tarentolae PP1-8e, Pd-tagged (WT) D116A; K118A; K119A; R121A”, for which the ratio to parent in [3] amounted to 0.79.
On to “Leishmania tarentolae PNUTS, Pd-tagged (WT, full-length) K95A”, for which the ratio to parent in experiment [1] was 1.
On the same count and under the same terms, the same measure for “Leishmania tarentolae PNUTS, Pd-tagged (WT, full-length) H114A; V115A”: 0.17.
Turning to “Leishmania tarentolae PP1-8e, Pd-tagged (WT) D265A”, in experiment [3], the ratio to parent stood at 0.51.

These data come from PMC10731240.
